This assay addresses monoclonal anti-H2a antibody of hybridoma clone B9 (ECACC 04030801). Nature of the assay: competitive ELISA, antibody preincubated overnight with free specific peptide, then plate-bound peptide.

Among the data in patent publication US20060286615A1 are % inhibition of the reaction values, retold here.

B1: H2 carboxyterminal peptide (SEQ ID NO:1, …) (peptide)
peptide: CEKRRNATGEVA
B1 displayed a % inhibition of the reaction of 81%.
